Reference: the nanobody polyreactivity screen of Harvey et al. (2022)

Assay: yeast display, Sf9 membrane polyspecificity reagent, FACS + sequencing; frameworks hold sequencing errors
Summary of the method: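 Galactose-induced (36–48 hours) yeast carrying a synthetic nanobody display library were exposed to 10% biotinylated, detergent-solubilized Sf9 membrane reagent at 4 °C for 1 hour. FACS followed streptavidin microbead enrichment, using low and high (top ~1%) gates for expression (anti-HA) and reagent binding (streptavidin). Colony PCR, MiSeq 2 × 250 sequencing and CDR-length filtering followed. Labels for polyreactivity reflect the gate of origin.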
In the case of “QVQLVESGGGLVQAGGSLRLSCAASGGIFRGYAMGWYRQAPGKERELVATITFSGTSTNYADSVKGRFTISRDNAKNTVYFQMNRLKPEDTAVYYFAAGPVFGGGGYDYWGKGTQVTVSS”, the “polyreactivity (PSR sort gate)” value is reported as “low polyreactivity”.
With “QVQLVESGGGLVQAGGSLRLSCAASGSTFVGNAMGWYRQAPGKERELVAAISRTGGSTYYADSVKGRFTISRDNAKNTVYLQMNSLKPEDTAVYYCNAYTRYSSRRGIGDYWGQGTQVTVSS” the “polyreactivity (PSR sort gate)” value was “high polyreactivity”.
In the case of “QDQIVESGGGLVQAGGSLRLSCAASGIIFWSYAMAWYRQAPGKERELVAAINTSGDSSYYADSVKGRFTISRDNAKNTVYLQMNSLKAEDTAVYYCAAKSSTRGDYWGQGTQVTVSS”, the “polyreactivity (PSR sort gate)” value is reported as “low polyreactivity”.
With “QVQIVESGGGLVQAGGSLRFSCADSGFTFYSYAIVWYRQAPGKERELVAAISWSGGSTYYADSVKGRFTISRDNAKNTVYLQMNSLKPEDTAVYFCNAPYIGEHYYWGQGTQVTVSS” the “polyreactivity (PSR sort gate)” value was “high polyreactivity”.
In the case of “QVQLVESGGGLVQAGGSLRLSCAASGRIFRRYAMGWYRQAPGKEREFVAAITKSGGSTYYADSVKGRFTISRDNAKNTVYLQMNSLKPEDTAVYYCATYPQYYFGYDYWGQGTQVTVSS”, the “polyreactivity (PSR sort gate)” value is reported as “high polyreactivity”.
In the case of “QVQLVESGGGLVQAGGSLRLSCAASGIIFWLYAMGWYRQAPGKERELVAAINWSGSTTYYADSVKGRFTISRDNAKNTVYLQMNSLKPEDTAVYYCAASRVRAYYYTSSLRRYYYWGQGTQVTVSS”, the “polyreactivity (PSR sort gate)” value is reported as “high polyreactivity”.
For “QVQLVESAGRLVQAGGSLRLSCSASGSIFDWYAMGWYRQEPGKERELVAAISWSGGSTYYADSVKGRFTISRDNAKNTVYLQMNSLKPEDSAVYYCYAVFLYFNDDKFDNWGQGTQVTVSS”, the “polyreactivity (PSR sort gate)” value was “low polyreactivity”.
In the case of “QVQLVESAGGLVQAGGSLRLSCAASGRIFYRYAMAWYRQAPGKERELVAAITQSGGSTFYADSVKGRFTISRDNAKNTVYLQMNSLKPEDTAVYYCNAYIPSLRGDYWGQGTQVTVSS”, the “polyreactivity (PSR sort gate)” value is reported as “high polyreactivity”.
For “QVQLVESGGGLVQAGGSLRLSCAASGRIFAVYVMGWYRQAPGKERELVAAISQSGGRTYYADSVKGRFTISRDNAKNTVYLQMNSLITEDTAVYYCNTVTSRATNFSGLGYWGQGTQVTVSS”, the “polyreactivity (PSR sort gate)” value was “high polyreactivity”.
With “QVQLQESGGGLVQAGGSLRLSCAASCTISQEDWIGWYRQAPGKEREFVAAIGLGSNTNYADSLKGRFTISRDNAKNTVYLQMNSLKPEDTAVYYCAVSVWQYSDHVYRGQGTQVTVSS” the “polyreactivity (PSR sort gate)” value was “low polyreactivity”.
In the case of “QVQLVESGGGLVQAGGSLRLSCAASGRIFTDNAMGWYRQEPGKERELVAAIRGSGSSTYYADSVKGRFTISRDNAKNTVYLQMNSLKPEDTAVYYCAARRAVYRGNYWGQGTQVTVSS”, the “polyreactivity (PSR sort gate)” value is reported as “high polyreactivity”.
With “QVQLVESGGGLVQAGGSLRFSCAASGSTIPPNAMGWYRQAPGKERELVAAINSTGSTNYADSVKGRFTISRDNAKNTVSLQMNSLQPEDTAVYYCAAEGLPYVRVFDFVSRYDYWGQGTQVTVSS” the “polyreactivity (PSR sort gate)” value was “low polyreactivity”.
With “QVQLVESGGGLVQAGRSLLLSCAASGRIFDGYAKGRYRQAPGKERELVAAINSNDGTTYYADSVKGRFTISRDKAKHTVYVQMNSLKPEDTAVYYCAKVSYNAWSYGPQMDYWGQGTQVTVSS” the “polyreactivity (PSR sort gate)” value was “low polyreactivity”.
For “QVQLVESGGGLVQAGGSLRLSCAASGFTFQYYAMGWYRQAPGKERELVAAISWSGGSTYYADSVKGRFTISRDNAKNTVYLQMNSLKPEDTAVYYCAAAPYTYPLGFDYWGQGTQVTVSS”, the “polyreactivity (PSR sort gate)” value was “high polyreactivity”.
In the case of “QVQLVESGGGLVQAGGSLRLSCAASGSIISWYVMGWYRQAPGKERELVAAITWGGGSRYYADSVKGRFTISRDNAKNTVYLQMNSLKPEDTAVYYCEFDYWGQGTQVSVSS”, the “polyreactivity (PSR sort gate)” value is reported as “low polyreactivity”.
For “QVQLVESGGGLVQAGGSLRLSCAASGSIFGAYAMGWYRQAPGKERELVAAISWRDGSTYYADSVKGRFTISRDNAKNTVYLQMNSLKPEDTAVYYCAAEYVYIFYDSDYWGQGTQVTVSS”, the “polyreactivity (PSR sort gate)” value was “high polyreactivity”.
In the case of “QVQLVESGGGLVQVGCSLRLICAASGRTFWWYAMGGYRQAPGKERELVAAISRGSTNYADSVKGRFTISRDNAKNTVYLQMNSLKPEDTAVYYCNAVSLYQSHDYDYWGQGSQVTVSS”, the “polyreactivity (PSR sort gate)” value is reported as “low polyreactivity”.
For “QVQLVESGGGLVHAGGTLRLTCAASGFIFKRYTLGWYRQAPGQERELFATINRNGGNTYYADSVKGRFTISRDNAKNTVYLQMNILKPEDTSVYYCNARYWRAQGWPGYDYWGQGTQVTVSS”, the “polyreactivity (PSR sort gate)” value was “high polyreactivity”.
For “QVQLVESGGGLVQAGGSLRLSCAASGRIIRINAMGWYRQAPGKERELVATISRSGGRTYYADSVKGRFTISRDNAKNTVYLQMNSLKPEDTAVYYCNADHFYYSSQYGYWGQGTQVTVSS”, the “polyreactivity (PSR sort gate)” value was “high polyreactivity”.
With “QVQLVESGGGLVQAGGSLRLSCAASGRIFSYYAMGWYRQAPRKERELVAGINWRGGRTYYADTVKGRFTISRDNAKITGYLQMNSLKPEETAVYYCAGDHPETPYDYWGQGTQVTVSS” the “polyreactivity (PSR sort gate)” value was “high polyreactivity”.
In the case of “QVQLVESGGGLVQAGGSLRLSCAASGSTFFYYAMGWYRQAPGKERELVARISGGGSTNYADSVKGRFTISRDNAKNTVYLQMNSLKPEDTAVYYCAADRYHYYRYSYGRYGYWGQGTQVTVSS”, the “polyreactivity (PSR sort gate)” value is reported as “high polyreactivity”.
In the case of “QVQLVETGGGLVQAGGSLRLSCAASGRIFGDNAMGWYRQAPGKEREFVATINGSGGSTYYADSVKGRFTISRDNAKNTVYLKMNRLKPEDTAVYYCFVQQNYGYDYWGQGTQVTVSS”, the “polyreactivity (PSR sort gate)” value is reported as “low polyreactivity”.
In the case of “QVQLVESGGGLVQAGGSLRLSCAASGSLFQPNDRGWYRQAPGKERELVASIRGRGGDTYYADSVKGRFTISRDNAKNTVYLQMNSLKPEDTGGYDCAADYRWGQGTQVTVSS”, the “polyreactivity (PSR sort gate)” value is reported as “low polyreactivity”.
With “QVQLVESGGGLVQAGGSLRLSCAASGGTFRPYAMGWYRQAPGKERELVATIRSSGGRTYYADSVKGRFTISRDNAKNTVYLQMISLKPEDTAVYSCAADRTRGYGNDYWGQGTQVTVSS” the “polyreactivity (PSR sort gate)” value was “high polyreactivity”.
With “QVQLVESGGGLVQAGGSLRLSCAASGSIIPLYAMGWYRQAPGKERELVAAISRRGGSTYYADSVKGRFTISRDNAKNTVYLQMNSLKPEDTAVYYCAVDTPSPSRGPRFNYWGQGTQVTVSS” the “polyreactivity (PSR sort gate)” value was “high polyreactivity”.
In the case of “QVQLVESGGGLVQAGGSLRLSCAASGRIFPYYAMGWYRQAPGKERELVAAINWRGTRTYADSVKGRFTLSRDNAKNTVYLQMNSLKPEDTEVYYCAARTLYFSKYDYWGQGTQVTVSS”, the “polyreactivity (PSR sort gate)” value is reported as “high polyreactivity”.
For “QVQLVESGGGLVQAGGSLRLSCAASGRTFTVNAMGWSRQAPGKERELVAAISTSTGRTYYADSVKGRFTISRDNAKNTVYLQMNSLKPEDTAVYYCAAQSPYRGYYYTYYLYDYWGQGTQVTVSS”, the “polyreactivity (PSR sort gate)” value was “high polyreactivity”.
In the case of “QVQLVESGGGLVQAGGSLRLSCAASGSTFPVYAMGWYRQAPGKERELVAAISRAGSTNYADSVKGRFTISRDNAKNSVYLQMNSLKPEDTAVYYCAARGYLWAGEWYVRRDDWGQGTQVTVSS”, the “polyreactivity (PSR sort gate)” value is reported as “high polyreactivity”.
With “QVQLVESGGGLVQAGGSLRLSCAASGSNFRPYAMGWYRQAPGKERELVAAISSSGGSTYYADSVKGRFTISGDNAKHTVYLQMNSLKPEDTAVYYCAKDGVSFYWLNKYYYWGQGTQVTVSS” the “polyreactivity (PSR sort gate)” value was “low polyreactivity”.
In the case of “QVQLVESGGGLVQAGGSLRLSCAASGSIFPFYAMGWYRQAPGKERELVAAISYSGGRTYYADSVKGRFTISRDNAKNTVYLQMNSLKPEDTAVYYCAVDSGQKRRDYWGQGTQVTVSS”, the “polyreactivity (PSR sort gate)” value is reported as “high polyreactivity”.
For “QVQLVESGGGLVQAGGSLRLSCAACGRTFRGYAMGWYRQAPGKERELVAAITSGGSTYYADSVKGRFTISRDNAKNTDFLEMNSLKPEDTAVYYCNKLYYSGKPRFRYDYWGQGTQVTVSS”, the “polyreactivity (PSR sort gate)” value was “high polyreactivity”.
With “QVQLVESGGGFVQAGGSLRLSCAASGRIFGPYAMGWYRQAPGKERELVAVITNSGSTNYADSVKGRFTISRDNAKNTVYLQMNSLKPEDTAVYYCNRVEGGAYGSNFDYWGQVTQVTVSS” the “polyreactivity (PSR sort gate)” value was “high polyreactivity”.
For “QVQLEESGGGLVQAGGILRLSCAASGFTLVYYAMGSYRQAPGKERELVATISGNGGRTYYADSVKGRFTISRDNAKNTDNLQMNSLKPEDTAVYYCAALLYIGSVGYDYWGQGTQVTVSS”, the “polyreactivity (PSR sort gate)” value was “low polyreactivity”.
For “QVQLLDSGGGLVQAGGSLRLSCAASGFIFRPYPMACYRQSPGKERELVAPITGGGSTYYADSVKGRFTISRENAKNTVYLQMNSLKPEDTAVYYCNADRRRRSGGFAGWHFQRNDFWGQGTQVTVSS”, the “polyreactivity (PSR sort gate)” value was “low polyreactivity”.
With “QVHLVESGGGLVQAGGSLRLSCAASGRTFSRYAMGWYRQAPGKERELVAGISLSGTSTYYADSVKGRFTISRDNAKNTVYLQMNSLIPVVTAVYYCATYSSYIPYGFDYWGQGTQVTVSS” the “polyreactivity (PSR sort gate)” value was “high polyreactivity”.
With “QVQLVESGGGLVQAGGSLRLSCAASGLTIFVYAMGWSRQAPGKERELVAAISDSGGSTYYADSVKGRFTISRDNAKNTVYLQMNSLKPEDTAVYYCAADYRGIYSGIWGDYWGQGTQVTVSS” the “polyreactivity (PSR sort gate)” value was “low polyreactivity”.
For “QVQLVESGGGLVQAGGSLRLSCAASGSTFSLNAMGWYRQAPGKERELVAAITRSGGSTYYADSVKGRFTISRDNAKNTVYLQMNSLKPEDTAVYYCAALPRWSHRYDDWGQGTQVTVSS”, the “polyreactivity (PSR sort gate)” value was “high polyreactivity”.
In the case of “QLQLHESGGGLVQAGGGLRLICAASGSISSTVFMGWYRQAPGKEREPVAAIAPCTTTYYADSLKGRFTISRDNAKNTVYLQKNSLRPEDTAVYYCAVFTDNRVAFLYWGQGTQVTLSS”, the “polyreactivity (PSR sort gate)” value is reported as “low polyreactivity”.
In the case of “QVQLVESGGGLVQAGGSLRLSCAASGRILYGYALGWYRQAPGKERELVAAISWSGTRTYDADSVQGRFTISRDNAKNTVYLQMNSLKPEDTAVYYCAARTHVPAEYDYWGQGTQVTVSS”, the “polyreactivity (PSR sort gate)” value is reported as “high polyreactivity”.
In the case of “QVQLVESGGGLVQAGGSLRLSCAASGIIFYRSVMGWYRQAPGKERELVAAITSGGSTNYADSVKGRFTISRDNAKNTVYLQMNSLKPEDTAVYYCAAVPRYRRWKYDYWGQGTQVTVSS”, the “polyreactivity (PSR sort gate)” value is reported as “high polyreactivity”.
In the case of “QVQLVESGGGLVQAGGSLRLSCAASGSILSYYAMGWYRQAPGKERELVAAISKSGGRTYYADSVKGRFTISRDNAKNTVYLQMNSLKPEDTAVYYCAAPATYKYDYWGQGTQVTVSS”, the “polyreactivity (PSR sort gate)” value is reported as “high polyreactivity”.
In the case of “QVQLVETGGGIVQAGGSLRLSFAASGFTSDYNAMGWYRQAPGKERELVAAISYSGGSTYYADSVKGRFTISRDNAKNTVYLQMNSLKPEDTAVYYCANGRYGRRYYYWGQGTQVTVSS”, the “polyreactivity (PSR sort gate)” value is reported as “high polyreactivity”.
In the case of “QVQLVESGGGLVQAGGSLRLSCAASGSILIGNAMGWYRQAPGKERELVAAIRSGGSTNYADSVKGRFTISRDNAKNTVYLHMNSLKPEDTAVYYCARDVYVYYPYYAYDYWGQGTQVTVSS”, the “polyreactivity (PSR sort gate)” value is reported as “low polyreactivity”.
